Test results: PMC2891831, “Insight into the Mechanisms of Adenovirus Capsid Disassembly from Studies of Defensin Neutralization” (PLoS Pathogens, 2010)
“Also recorded” adds a separate entry of the source.

Legend:
[1] = tested on: HAdV-5; details: ref [13], cited from earlier work
Protocol: In order to determine the receptor-dependence of this effect, we pre-incubated cells with recombinant fiber knob from HAdV-5 (5FK) to block receptor (CAR) interactions and measured cell binding of fluorescently labeled HAdV-5 that was pre-incubated with or without HD5 or HD5-Abu (Figure 3C). Cells incubated with fiber knob from HAdV-16 (16FK), which binds CD46, served as a control. […] Therefore, we considered which of the multiple binding sites visualized by cryoEM might lead to enhanced virion stability. We reasoned that we might find a negatively charged region o ...

[2] = tested on: HAdV-7; assay: Virus-defensin binding, HAdV-7; design: species or system human adenovirus
[3] = tested on: Ad5.F35 capsid (hexon, penton base, fiber); assay: CryoEM difference map analysis of Ad5.F35+HD5; format: binding, human adenovirus; details: 20 µM HD5, 160 µg/ml Ad5.F35, cryoEM difference map, 12 Å resolution
Protocol: To obtain structural insight into the mechanism of α-defensin-mediated neutralization of HAdV infection, we studied a complex of Ad5.F35 (Ad35F) and HD5 by cryoelectron microscopy (cryoEM). This chimeric virus construct was chosen because of its short fiber and the availability of a cryoEM structure of Ad5.F35 in the absence of defensin for comparison, [31]. […] Ad5.F35 was incubated with a saturating concentration of HD5 (20 µM) then applied to grids and flash frozen for cryoEM. A dataset of 2,611 cryoEM particle images of the Ad5.F35+HD5 complex was collected and processed as performed earlier for Ad5.F35 [31]. The resolution of the icosahedral portion of the Ad5.F35+HD5 reconstruction is estimated as 12 Å by the FSC 0.5 threshold criterion, compared to 6.9 Å for the Ad5.F35 reconstruction. Both cryoEM structures are shown filtered to 12 Å resolution in Figure 4A. The most noticeable difference between the two structures is the presence of more density on top of penton base and around the fiber shaft in the Ad5.F35+HD5 structure. In addition, while the fiber knob is visible in the Ad5.F35 structure, it is only weakly reconstructed in the Ad5.F35+HD5 structure (Figure 4A inset). […]

[4] = tested on: HAdV-5/HAdV-19c chimeric viruses; assay: FACS-based infection assay of virus chimeras at 100-fold lower moi; format: cell-based, human adenovirus; details: data not shown
Description: (§1) We then combined the GYAR substitution with the PB substitution in a single construct (PB/GYAR).

[5] = tested on: GYAR virus; assay: Infection assay, GYAR virus; format: cell-based, human adenovirus; details: 5 µM HD5, A549 cells, at least three independent experiments
Protocol: Figure 6 Neutralization determinants are located in fiber and penton base. A) Schematic of chimeric viruses. Capsid proteins are depicted in the order in which they are encoded in the virus genome for HAdV-5 (white) and HAdV-19c (grey). The variable residues in fiber (GYAR and DTET) are indicated for each construct. B) Each of the chimeric viruses was incubated with 5 µM (grey) or 10 µM (black) HD5 and assessed for infectivity on A549 cells. Data are the mean of the percent infectivity compared to control cells infected with each virus in the absence of defensin for at least three independent experiments ± SD. The upper limit for quantification of this assay is 200%.
as §1
Prior to use in this assay, each virus stock was titrated on A549 cells. A virus concentration was chosen to produce 50–70% maximal signal in the absence of defensin as described below. […] In parallel, wells were infected with two-fold serial dilutions of each virus to establish a standard curve for quantification with an upper limit of 200%. […] Total well fluorescence above background was quantified with ImageJ software. For each virus, samples were quantified by nonlinear regression against the standard curve using Prism software (GraphPad Software, Inc., La Jolla, CA).

B1: HD5: human alpha-defensin; synthetic, obtained from Peptides International; three disulfide bonds (PDB 1ZMP) (peptide, UniProt Q01523 20-94, looked up)
Defensin alpha 5: ESLQERADEATTQKQSGEDNQDLAISFAGNGLSALRTSGSQARATCYCRTGRCATRESLSGVCEISGRLYRLCCR
modifications: Defensin-5
[1]; [36]
  effect on HAdV-5 entry into host cells: does not prevent HAdV-5 from entering host cells
[1]
  binding of HAdV-5 to cells: enhances binding of HAdV-5 to cells
[2]
  level of HD5 binding (in words): specific binding
[3]
  HD5 binding regions on capsid: HD5 difference density is also found within the central depression of the hexon trimers; also recorded: multiple binding sites for HD5 on the penton complex (penton base and fiber); also recorded: interacts with the exposed surfaces of the three major capsid proteins: hexon, penton base, and fiber; also recorded: extensive binding of HD5 to the fiber
[4]
  sensitivity phenotype of chimeras in FACS-based assay: Equivalent results
[5]
  sensitivity to HD5 neutralization compared to HAdV-5: less sensitive
